Tested on: ZF6-DBD (AAV8-CMV delivered) (artificial (designed))
Assay: cell_activity
Details: pig retina, rhodopsin transcript by qRT-PCR, 15 days after AAV8 injection

“porcine RHO proximal promoter / TSS region” was tested, and the activity was 45 % repression.

Source: US20160289284
